# According to the supplement of paper PMC9170038:
# Test system: MS2 coat protein
# Assay: apparent KD of MS2 coat protein; designed switch direction (-1 OFF switch, 1 ON switch): -1; higher = weaker reporter binding
# Outline: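 RNA switches sharing common flanks were transcribed by stalled E. coli RNA polymerase on Illumina chips. A doubling series of SNAP-549-labelled MS2 coat protein, from 0.7 or 1.5 nM to 3 µM, was applied in Tris-HCl pH 7.5 buffer with KCl, MgCl2, BSA, DTT, tRNA and Tween-20. Each step lasted 0.8–1.5 h at the bottom of the series and 10–20 min at the top. Normalised cluster fluorescence was curve-fitted, giving apparent KD as the per-design median over clusters.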
# [1] = Eterna round: R95, input ligand: FMN 200 uM
# [2] = Eterna round: R95, input ligand: microRNA oligo, concentration not stated
# [3] = Eterna round: R95, input ligand: none
# [4] = input ligand: microRNA oligo, concentration not stated
Sequence,apparent KD of MS2 coat protein [1] [nM],apparent KD of MS2 coat protein [2] [nM],apparent KD of MS2 coat protein [3] [nM],apparent KD of MS2 coat protein (input ligand: FMN 200 uM) [nM],apparent KD of MS2 coat protein (input ligand: none) [nM],apparent KD of MS2 coat protein [4] [nM]
AAAAAACAAGGAUAUACAAAAAAAAAAUGUGAUAAAAAACCACAUGAGGAUCACCCAUGUAGAAGGUGUAAAAA [JR_Exclusion2_Sub003] (puzzle: Exclusion 2),55.6,62.8,65,,,
AAAAAACAAGGAUAUACAAAAAAAAAAUGUGUUAAAUUUUCACAUGAGGAUCACCCAUGUAGAAGGUGUAAAAA [JR_Exclusion2_Sub005] (puzzle: Exclusion 2),46,49.1,51.7,,,
AAAAAACAAGGAUAUACGAAGGAGGAUUAUCUUAAUUUUUGACAUGAGGAUCACCCAUGUAGAAGGUGUUAAAA [JR_Exclusion2_Sub009] (puzzle: Exclusion 2),83.5,38.2,48.4,,,
AAAAAACAAGGAUAUACGAAGGAUGAUUAUCUUAAUUUUUGACAUGAGGAUCACCCAUGUAGAAGGUGUUAAAA [JR_Exclusion2_Sub008] (puzzle: Exclusion 2),125,51.5,52.9,,,
AAAAAACAUGAGGAUCACCCAUGUCAGGAUAUCCGAAAAGAAAAGAAAAAGAAAAAAGGGAGAAGGGACAAAAA [April's ex-date #2] (puzzle: Exclusion 1),50.5,42,33,,,
AAAAAGCGAGGAUAUGCAUAAGGACCCGGGAGGGAAAUCAAACAUGAGGAUCACCCAUGUAGAAGGCGCAAAAA [Exclss2-III] (puzzle: Exclusion 2),,18.2,,,,
"AAAACAAAAGGAUAUACAUGAGGAUCACCCAUGUGGCGAUAAAUCGCCGCUAAACCAUGUAGAAGGUUUGCGAA [EX3 A.2] (Eterna round: R97, puzzle: Exclusion 3)",,,,102,42.6,
AAAACACAUGAGGAUCACCCAUGUGAGGAUAUGUUAAUUUCGGCCAAAGCCGAAAUUAACAGAAGGCACAUAAA [JR_Exclusion1_Sub019] (puzzle: Exclusion 1),,46,,,,
AAAACGUCAGGAUAUACGAAAUAAAAUAAAAUAAAAUAAAAGUAGAAGGGACAUGAGGAUCACCCAUGUAAUAA [Exclusion 4 #1] (puzzle: Exclusion 4),43.7,26.6,36.2,,,
AAAACUGAAGGAUAUGCCAGGGUGAGAGCUGGUGACGUUUAACAUGAGGAUCACCCAUGUAGAAGGUCAAAACA [Usate] (puzzle: Exclusion 2),,12.6,,,,
AAAAGAAGUGUUAGGAUAUGUGUAAGUAGAAAGACACAGAAGGAACAUGAGGAUCACCCAUGUGGCCAAAGAAC [Vesotila] (puzzle: Brourd's mod of Exclusion 4),38.7,14.1,13.6,,,
AAAAGAGUAGGAUAUCUGACGCGAAACAUGAGGAUCACCCAUGUAGGGCGGUCCUGCUUAAGAGAAGGGCUCAAAU [Sodirira] (puzzle: Exclusion 5),,88.9,,,,
"AAAAGGUCAGGAUAUGCUUGGCGGAUUCUGGUAUCCAAAUGACAUGAGGAUCACCCAUGUAGAAGGGACAUCAG [Maanlesoge] (Eterna round: R97, puzzle: Exclusion 2)",,,,21.8,20.6,
AAAAGGUGAGGAUAUUCGGCGCCGGGAAGGUUGGUGCGGAUGAAGAAGGCACAUGAGGAUCACCCAUGUAAUAA [Excls4-I] (puzzle: Exclusion 4),,43.5,,,,
"AAAAUAAAGAUGCCUUAAAACAUGAGGAUCACCCAUGUGAGUAAGGAUAUCGGAACCAAUCGCGACGAGAAGGUACUCGCGUGU [Ceestemaat] (Eterna round: R96, puzzle: Exclusion NG 3)",,,,9.87,14.4,9.44
AAAAUACAUGAGGAUCACCCAUGUAAGGAUAUACGCCUAGUACCGAUGGUACUACAAAGUAGAAGGUACAUGGC [Arma] (puzzle: Exclusion 1),17.1,12.3,14.1,,,
"AAAAUACAUGAGGAUCACCCAUGUGAGGAUAUGAGAGUCAUUUAUAUAUAUUAGAUUCUCAGAAGGCACAUAAA [JR_Ex1_Sub068] (Eterna round: R97, puzzle: Exclusion 1)",,,,211,53.7,
"AAAAUGUCAGGAUAUUGUUAGUUUAGUUGUUUGUAUUAGUUCGAGAAGGGACAUGAGGAUCACCCAUGUUAAAA [Ex4 #67] (Eterna round: R97, puzzle: Exclusion 4)",,,,45.7,29.9,
AAAAUGUGAGGAUAUCAGGUGUGCUAGCGAACUGGUACAUCUGAGAAGGCACAUGAGGAUCACCCAUGUUCCUU [Mat - Exclusion 4 - Mod of JL - D51] (puzzle: Exclusion 4),,16.2,,,,
"AAACAGCAAGGAUAUACGGGCUGUGCUUUUCAUUUCAUACAACAUGAGGAUCACCCAUGUAGAAGGUGCAACAA [Ex2 #4] (Eterna round: R97, puzzle: Exclusion 2)",,,,125,34.3,
"AAACAGCAAGGAUAUACGGGCUGUGCUUUUCAUUUCUUACAACAUGAGGAUCACCCAUGUAGAAGGUGCAACAA [Ex2 #5] (Eterna round: R97, puzzle: Exclusion 2)",,,,80.4,24.5,
"AAACCCUGAGGAUAUAGAUAACAACAAAGCCUCACGUGCCAACAUGAGGAUCACCCAUGUAGAAGGCAGGCCAA [Mod R3 Insanara 4 - Jieux - Exclusion 2] (Eterna round: R97, puzzle: Exclusion 2)",,,,14.7,17.2,
"AAACCUGCCCAUGACCGCAAGCCUUUUGCUUGUCUUACCACAUGAGGAUCACCCAUGUGACAUGGGCUCCUUAUAAA [Solabixe] (puzzle: Sensor v3, turn-off variant 2)",14.1,10.5,13.5,,,
"AAACUCCUGACAACCAGGAACAUGAGGAUCACCCAUGUGGCGUGACUCAUACGGGCUUUUUGUUCGUUUUAUUCACG [Aleatxe] (puzzle: Sensor v3, turn-off variant 1)",41,26.6,51,,,
"AAAGAAAAGAAAGGAUAUAGCGCAGAACCGCAGCUAGAAGGUUCGGUGGGUAUCCUGUAACAUGAGGAUCACCCAUGUAAAGAG [Tire] (Eterna round: R96, puzzle: Exclusion NG 1)",,,,69.9,55.7,48.7
"AAAGAUGGAGGAUAUACAUGAGGAUCACCCAUGUAGAAAAAAAAUUGGGAAAAAGAAAGUAGAAGGCCAAAAAA [Ex 3 May 43] (Eterna round: R96, puzzle: Exclusion 3)",,,,67.6,36.5,25.6
"AAAGGAGUAGGAUAUGAGCCCAAAUACAUGAGGAUCACCCAUGUCGGGUUCAUGGAGGGCUUAGAAGGAUUUAAAA [Onreridi] (Eterna round: R97, puzzle: Exclusion 5)",,,,25.8,23.1,
